Source: patent US20260098095A1 (Hoffmann-La Roche, published 2026)
Numbering of substitutions follows the chain as printed.

Key:
Test in all cases: cell-based or functional assay
[1] = target: KEAP1 (human)
[2] = target: UNC80 (human)
[3] = target: MTOR (human)
[4] = target: PKP1 (human)
[5] = target: MAGEB2 (human)
[6] = target: GAPDHS (human)
[7] = target: FBXO34 (human)
[8] = target: gutQ (human)
[9] = target: DPYSL4 (human)
[10] = target: HLA-A2 with peptide MAGB6 on T2 cells (human)
[11] = target: KDM1A (human)
[12] = target: UBE2V2 (human)
[13] = target: SLC45A1 (human)
[14] = target: ARF3 (human)
[15] = target: ARF1 (human)
[16] = target: PIGG (human)
[17] = target: CRMP1 (human)
[18] = target: EDC3 (human)
[19] = target: CCS (human)
[20] = target: pfkA (human)
[21] = target: DPYSL3 (human)
[22] = target: URB1 (human)
[23] = target: BNRF1 (human)
[24] = target: VPS13D (human)
[25] = target: DYNC1H1 (human)
[26] = target: T1, HLA-A2/MAGE-A4 peptide MHC (pMHC) complex on cells (human)
[27] = target: T1, HLA-A2/MAGE-A4 peptide MHC (pMHC) …; remark: listed apart in the source
[28] = target: T1, HLA-A2/MAGE-A4 peptide MHC (pMHC) …; remark: listed apart in the source
[29] = target: G1A (human)
[30] = target: T9A (human)
[31] = target: R6A (human)
[32] = target: G5A (human)
[33] = target: E7A (human)
[34] = target: D4A (human)
[35] = target: V2A (human)
[36] = target: H8A (human)
[37] = target: V10A (human)
[38] = target: Y3A (human)
[39] = target: T1, HLA-A2/MAGE-A4 peptide MHC (pMHC) …; remark: listed apart in the source
[40] = target: HLA-A2 with peptide MAGA10 on T2 cells (human)

B1: Molecule A (bispecific antibody, V domains shown)
VH 1: YVQLVESGGGLVKPGGSLRLSCAAPLPFTGLDMSWVRQAPGKGLEWVGSISPKGGSTYYNDNVLGRFTISRDNSKNTLYLQMNSLRAEDTAVYYCARDWGFFDLWGQGTLVTVSS
VL 1: AIQMTQSPSSLSASVGDRVTITCRASQSISNYLAWYQQKPGKAPKLLIYDANAHENDVPSRFSGSGSGTDFTLTISSLQPEDFATYYCQQYSSHPYTFGQGTKLEIK
VH 2: not shown
VL 2: QAVVTQEPSLTVSPGGTVTLTCGSSTGAVTTSNYANWVQEKPGQAFRGLIGGTNKRAPGTPARFSGSLLGGKAALTLSGAQPEDEAEYYCALWYSNLWVFGGGTKLTVL
% of MAGE-A4 signal, Jurkat-NFAT [1]: 0.39% | % of MAGE-A4 signal, Jurkat-NFAT [2]: 0.48% | % of MAGE-A4 signal, Jurkat-NFAT [3]: 0.41% | % of MAGE-A4 signal, Jurkat-NFAT [4]: 0.5% | % of MAGE-A4 signal, Jurkat-NFAT [5]: 0.83% | % of MAGE-A4 signal, Jurkat-NFAT [6]: 0.91% | % of MAGE-A4 signal, Jurkat-NFAT [7]: 0.46% | % of MAGE-A4 signal, Jurkat-NFAT [8]: 0.64% | % of MAGE-A4 signal, Jurkat-NFAT [9]: 1.68% | % of MAGE-A4 signal, Jurkat-NFAT; grey (>2%) [10]: 22.4% | % of MAGE-A4 signal, Jurkat-NFAT [11]: 0.5% | % of MAGE-A4 signal, Jurkat-NFAT [12]: 0.75% | % of MAGE-A4 signal, Jurkat-NFAT [13]: 0.39% | % of MAGE-A4 signal, Jurkat-NFAT [14]: 0.92% | % of MAGE-A4 signal, Jurkat-NFAT [15]: 0.67% | % of MAGE-A4 signal, Jurkat-NFAT [16]: 0.7% | % of MAGE-A4 signal, Jurkat-NFAT [17]: 1.74% | % of MAGE-A4 signal, Jurkat-NFAT [18]: 0.9% | % of MAGE-A4 signal, Jurkat-NFAT; grey (>2%) [19]: 3.06% | % of MAGE-A4 signal, Jurkat-NFAT [20]: 0.58% | % of MAGE-A4 signal, Jurkat-NFAT; grey (>2%) [21]: 32.9% | % of MAGE-A4 signal, Jurkat-NFAT; grey (>2%) [22]: 80.5% | % of MAGE-A4 signal, Jurkat-NFAT [23]: 0.47% | % of MAGE-A4 signal, Jurkat-NFAT [24]: 0.67% | % of MAGE-A4 signal, Jurkat-NFAT [25]: 0.4% | EC50 [pM], T-cell mediated lysis of A-375 cells, 24 h [26]: 1210 pM | EC50 [pM], T-cell mediated lysis of C-33A cells, 24 h [26]: 225 pM | EC50 [pM], T-cell mediated lysis of IM-9 cells, 24 h [26]: 43.4 pM | EC50 [pM], T-cell mediated lysis of NCI-H1755 cells, 24 h [26]: 9.4 pM | EC50 [pM], T-cell mediated lysis of NCI-H2023 cells, 24 h [26]: 2090 pM | EC50 [pM], T-cell mediated lysis of UMUC-3 cells, 24 h [26]: 775 pM | EC50 [pM] 24 h, T-cell mediated lysis of MAGE-A4 peptide pulsed T2 cells [27]: 1.2 pM | EC50 [pM], activation of Jurkat-NFAT reporter cells (luminescence, 6 h) with MAGE-A4 peptide pulsed T2 cells [28]: 30.3 pM | EC50, Jurkat-NFAT activation [29]: 40.1 nM | EC50, Jurkat-NFAT activation [30]: 0.0383 nM | EC50, Jurkat-NFAT activation [31]: 40.1 nM | EC50, Jurkat-NFAT activation [32]: 0.0056 nM | EC50, Jurkat-NFAT activation [33]: 0.1 nM | EC50, Jurkat-NFAT activation [34]: 51.6 nM | EC50, Jurkat-NFAT activation [35]: 0.0184 nM | EC50, Jurkat-NFAT activation [36]: 0.044 nM | EC50, Jurkat-NFAT activation [37]: 0.029 nM | EC50, Jurkat-NFAT activation [38]: 5.27 nM | EC50, Jurkat-NFAT activation [39]: 0.0105 nM

B2: Molecule F (bispecific antibody, V domains shown)
VH 1: not shown
VL 1: SSELTQDPAVSVALGQTVRITCQGDSLRSYYASWYQQKPGQAPVLVIYGKNNRPSGIPDRFSGSSSSNTASLTITGAQAEDEADYYCNSRMSSRYHHDVFGGGTKLTVL
VH 2: not shown
VL 2: B1 VL 2
% of MAGE-A4 signal, Jurkat-NFAT [1]: 0.66% | % of MAGE-A4 signal, Jurkat-NFAT [2]: 1.05% | % of MAGE-A4 signal, Jurkat-NFAT [3]: 0.42% | % of MAGE-A4 signal, Jurkat-NFAT [4]: 0.64% | % of MAGE-A4 signal, Jurkat-NFAT; grey (>2%) [40]: 145% | % of MAGE-A4 signal, Jurkat-NFAT; grey (>2%) [5]: 126% | % of MAGE-A4 signal, Jurkat-NFAT [6]: 1.01% | % of MAGE-A4 signal, Jurkat-NFAT [7]: 0.78% | % of MAGE-A4 signal, Jurkat-NFAT [8]: 0.73% | % of MAGE-A4 signal, Jurkat-NFAT; grey (>2%) [9]: 14.2% | % of MAGE-A4 signal, Jurkat-NFAT; grey (>2%) [10]: 130% | % of MAGE-A4 signal, Jurkat-NFAT [11]: 0.9% | % of MAGE-A4 signal, Jurkat-NFAT [12]: 0.71% | % of MAGE-A4 signal, Jurkat-NFAT [13]: 0.68% | % of MAGE-A4 signal, Jurkat-NFAT [14]: 1.53% | % of MAGE-A4 signal, Jurkat-NFAT [15]: 1.58% | % of MAGE-A4 signal, Jurkat-NFAT [16]: 0.78% | % of MAGE-A4 signal, Jurkat-NFAT; grey (>2%) [17]: 6.54% | % of MAGE-A4 signal, Jurkat-NFAT [18]: 0.89% | % of MAGE-A4 signal, Jurkat-NFAT; grey (>2%) [19]: 76.8% | % of MAGE-A4 signal, Jurkat-NFAT [20]: 0.8% | % of MAGE-A4 signal, Jurkat-NFAT; grey (>2%) [21]: 61.9% | % of MAGE-A4 signal, Jurkat-NFAT; grey (>2%) [22]: 78.4% | % of MAGE-A4 signal, Jurkat-NFAT [23]: 0.55% | % of MAGE-A4 signal, Jurkat-NFAT; grey (>2%) [24]: 172% | % of MAGE-A4 signal, Jurkat-NFAT [25]: 0.64% | EC50 [pM], T-cell mediated lysis of A-375 cells, 24 h [26]: 822 pM | EC50 [pM], T-cell mediated lysis of C-33A cells, 24 h [26]: 186 pM | EC50 [pM], T-cell mediated lysis of IM-9 cells, 24 h [26]: 8.3 pM | EC50 [pM], T-cell mediated lysis of NCI-H1755 cells, 24 h [26]: 2.7 pM | EC50 [pM], T-cell mediated lysis of NCI-H2023 cells, 24 h [26]: 890 pM | EC50 [pM], T-cell mediated lysis of U266B1 cells, 24 h [26]: 352 pM | EC50 [pM], T-cell mediated lysis of UMUC-3 cells, 24 h [26]: 429 pM | EC50 [pM] 24 h, T-cell mediated lysis of MAGE-A4 peptide pulsed T2 cells [27]: 1.5 pM | EC50 [pM], activation of Jurkat-NFAT reporter cells (luminescence, 6 h) with MAGE-A4 peptide pulsed T2 cells [28]: 41.6 pM | EC50, Jurkat-NFAT activation [29]: 0.259 nM | EC50, Jurkat-NFAT activation [30]: 0.45 nM | EC50, Jurkat-NFAT activation [31]: 0.196 nM | EC50, Jurkat-NFAT activation [32]: 1.09 nM | EC50, Jurkat-NFAT activation [33]: 0.332 nM | EC50, Jurkat-NFAT activation [34]: 9.95 nM | EC50, Jurkat-NFAT activation [35]: 6.57 nM | EC50, Jurkat-NFAT activation [36]: 0.0813 nM | EC50, Jurkat-NFAT activation [37]: 0.791 nM | EC50, Jurkat-NFAT activation [38]: 15 nM | EC50, Jurkat-NFAT activation [39]: 0.0954 nM

B3: Molecule E (bispecific antibody, V domains shown)
VH 1: not shown
VL 1: B2 VL 1 with S67G, M91Q, R94Y, D98I
VH 2: not shown
VL 2: B1 VL 2
% of MAGE-A4 signal, Jurkat-NFAT [1]: 0.34% | % of MAGE-A4 signal, Jurkat-NFAT [2]: 0.49% | % of MAGE-A4 signal, Jurkat-NFAT [3]: 0.29% | % of MAGE-A4 signal, Jurkat-NFAT [4]: 0.43% | % of MAGE-A4 signal, Jurkat-NFAT; grey (>2%) [40]: 43.2% | % of MAGE-A4 signal, Jurkat-NFAT; grey (>2%) [5]: 108% | % of MAGE-A4 signal, Jurkat-NFAT [6]: 0.39% | % of MAGE-A4 signal, Jurkat-NFAT; grey (>2%) [7]: 4.03% | % of MAGE-A4 signal, Jurkat-NFAT [8]: 0.31% | % of MAGE-A4 signal, Jurkat-NFAT [9]: 0.48% | % of MAGE-A4 signal, Jurkat-NFAT; grey (>2%) [10]: 110% | % of MAGE-A4 signal, Jurkat-NFAT [11]: 0.34% | % of MAGE-A4 signal, Jurkat-NFAT [12]: 0.4% | % of MAGE-A4 signal, Jurkat-NFAT [13]: 0.38% | % of MAGE-A4 signal, Jurkat-NFAT [14]: 0.85% | % of MAGE-A4 signal, Jurkat-NFAT [15]: 0.93% | % of MAGE-A4 signal, Jurkat-NFAT [16]: 0.26% | % of MAGE-A4 signal, Jurkat-NFAT [17]: 0.37% | % of MAGE-A4 signal, Jurkat-NFAT [18]: 0.54% | % of MAGE-A4 signal, Jurkat-NFAT; grey (>2%) [19]: 38.6% | % of MAGE-A4 signal, Jurkat-NFAT [20]: 0.26% | % of MAGE-A4 signal, Jurkat-NFAT [21]: 1.04% | % of MAGE-A4 signal, Jurkat-NFAT [22]: 1.2% | % of MAGE-A4 signal, Jurkat-NFAT [23]: 0.45% | % of MAGE-A4 signal, Jurkat-NFAT; grey (>2%) [24]: 47% | % of MAGE-A4 signal, Jurkat-NFAT [25]: 0.17% | EC50 [pM], T-cell mediated lysis of C-33A cells, 24 h [26]: 3980 pM | EC50 [pM], T-cell mediated lysis of IM-9 cells, 24 h [26]: 393 pM | EC50 [pM], T-cell mediated lysis of NCI-H1755 cells, 24 h [26]: 84.4 pM | EC50 [pM], T-cell mediated lysis of UMUC-3 cells, 24 h [26]: ~5800 pM | EC50 [pM] 24 h, T-cell mediated lysis of MAGE-A4 peptide pulsed T2 cells [27]: 32.7 pM | EC50 [pM], activation of Jurkat-NFAT reporter cells (luminescence, 6 h) with MAGE-A4 peptide pulsed T2 cells [28]: 877 pM | EC50, Jurkat-NFAT activation [29]: 2.72 nM | EC50, Jurkat-NFAT activation [30]: 4.26 nM | EC50, Jurkat-NFAT activation [31]: 2.37 nM | EC50, Jurkat-NFAT activation [32]: 9.44 nM | EC50, Jurkat-NFAT activation [33]: 2.98 nM | EC50, Jurkat-NFAT activation [34]: 22.3 nM | EC50, Jurkat-NFAT activation [35]: 4.07 nM | EC50, Jurkat-NFAT activation [36]: 1.23 nM | EC50, Jurkat-NFAT activation [37]: 7.46 nM | EC50, Jurkat-NFAT activation [38]: 2.06 nM | EC50, Jurkat-NFAT activation [39]: 1.62 nM
